Assay [1] addresses T1, SARS-CoV spike RBD (R306-F527), C-terminal 6-His (SARS-CoV, UniProt P59594 306-527). Description: flow cytometry, blocking of binding to hACE-2 cells. (In flow cytometry, cells or beads pass a laser one at a time.)
In assay [2] the target is T2, recombinant monomeric SARS-CoV-1 S1 protein (SARS-CoV-1, UniProt P59594 14-667). The description is as above.
For assay [3], the target named is T1, SARS-CoV spike RBD (R306-F527), …. The assay is described as above. This is another data set of the same source.
Assay [4] deals with T2, recombinant monomeric SARS-CoV-1 S1 …. The description is as above. The source holds these as a separate data set.
For assay [5], the target named is T3, recombinant monomeric SARS-CoV-2 S1 protein, his-tagged (SARS-CoV-2, UniProt P0DTC2 16-681).
T3 construct: domain: S1
Described as above.

Assay [6] deals with T4, recombinant his-tagged homotrimeric SARS-CoV-2 spike protein (SARS-CoV-2, UniProt P0DTC2 16-1211). The assay is described as above.
Assay [7] concerns the target T3, recombinant monomeric SARS-CoV-2 S1 …. Described as above. This is another data set of the same source.
For assay [8], the target named is T4, recombinant his-tagged homotrimeric …. Described as above. This is another data set of the same source.
Assay [9] has as its target T1, SARS-CoV spike RBD (R306-F527), …. Description: antigen-down ELISA, coated SARS-CoV-1 S1 RBD titrated, Ab 1 µg/mL. Background: In an ELISA, binding on a coated surface is turned into a signal by an enzyme label.
Assay [10] deals with T2, recombinant monomeric SARS-CoV-1 S1 …. Briefly: antigen-down ELISA, coated SARS-CoV-1 S1 titrated, Ab 1 µg/mL.
The target is the same in assay [11]. The assay is described as above. The source holds these as a separate data set.
Assay [12] addresses T1, SARS-CoV spike RBD (R306-F527), …. Description: antigen-down ELISA, coated SARS-CoV-1 S1 RBD titrated, Ab 1 µg/mL. This is another data set of the same source.
Assay [13] deals with T5, BSA (bovine, UniProt P02769).
T5 construct: also called bovine serum albumin
T5 sequence (P02769 25-607 limits assumed): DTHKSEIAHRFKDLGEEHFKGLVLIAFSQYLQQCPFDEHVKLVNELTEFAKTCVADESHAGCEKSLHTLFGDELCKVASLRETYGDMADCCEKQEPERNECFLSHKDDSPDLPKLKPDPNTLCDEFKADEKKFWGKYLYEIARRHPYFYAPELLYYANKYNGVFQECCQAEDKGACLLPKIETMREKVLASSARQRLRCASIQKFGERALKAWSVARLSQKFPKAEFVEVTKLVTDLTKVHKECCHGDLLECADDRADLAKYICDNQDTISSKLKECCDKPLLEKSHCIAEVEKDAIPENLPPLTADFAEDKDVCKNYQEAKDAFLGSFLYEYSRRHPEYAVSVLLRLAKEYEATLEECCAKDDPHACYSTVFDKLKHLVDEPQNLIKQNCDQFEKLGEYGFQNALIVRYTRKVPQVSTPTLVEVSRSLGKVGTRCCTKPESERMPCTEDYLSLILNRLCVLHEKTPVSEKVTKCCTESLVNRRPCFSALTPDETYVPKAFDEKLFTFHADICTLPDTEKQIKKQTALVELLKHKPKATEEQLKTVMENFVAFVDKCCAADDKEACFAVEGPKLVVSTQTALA
Briefly: dipstick, adsorbed protein spots, Ab 10 µg/mL (reference).

In assay [14] the target is T1, SARS-CoV spike RBD (R306-F527), …. Description: lateral flow NC50, RBD-AuNP vs immobilised ACE2.
Assay [15] addresses T2, recombinant monomeric SARS-CoV-1 S1 …. Description: antigen-down ELISA, coated SARS-CoV-1 S1 titrated, Ab 1 µg/mL. This is another data set of the same source.
Assay [16] has as its target T5, BSA. Briefly: dipstick, adsorbed protein spots, Ab 10 µg/mL, GAM-AuNP.
The target in assay [17] is T1, SARS-CoV spike RBD (R306-F527), …. Description: dipstick, adsorbed RBD spots, Ab 10 µg/mL, GAM-AuNP.
Assay [18] has the same target. The description is as above. This is another data set of the same source.
Assay [19] has as its target T2, recombinant monomeric SARS-CoV-1 S1 …. Briefly: antigen-down ELISA, coated SARS-CoV-1 S1 titrated, Ab 1 µg/mL. The source holds these as a separate data set.

Residue numbers refer to the chain shown, from its start. Read-outs that look alike come from different tables or passages of the source.

Usually IC50 stands for the concentration at which inhibition is half-maximal.

B1: 1035716 (antibody, V domains shown)
VH: EVLLQQSGPELVKPGASVKIPCKASGYTFTDYNMDWVKQSHGKSLEWIGDINPNNGGTIYNQKFKGKATLTVDKSSSTAYMELRSLTSEDTAVYYCAREGYGNYFDYWGQGTTLTVSS
VL: DILLTQSPAILSVSPGERVSFSCRASQSIGTSIHWYQQRTNGSPRLLIKYASESISGIPSRFSGSGSGTDYTLSINSVESEDIADYYCQQSYSWPTTFGAGTKLELK
As for B1, the percent blocking in [1] amounted to 68.7%; in assay [2] it was 89.5%; in [3], 68.7%; in [4], 89.5%; in [5], 93.8%; in assay [6] it was 96.5%. The results for the percent blocking in [7] and in [8] were 93.8% and 96.5%, respectively.

B2: 1035433 (antibody, V domains shown)
VH: QVQLQQSGPQLVRPGASVKISCKASGYSFTIYWMHWVQQRPGQGLEWIGMIDPSDSETRLNQKFKDKATLTVDKSSSTAYMQLSSPTSEDSAVYYCARRGDYNFDYWGQGTTLTVSS
VL: DIVMTQAAPSVPATPGESVSISCRSSKSLLHSNGNTYLYWFLQRPGQSPQLLIFRMSNLASGVPDRFSGSGSGTAFTLRISRVEAEDVGVYYCMQHLEYPYTFGGGTKLEIK
Regarding B2, the percent blocking in assay [1] came out at 0%; in assay [2], 0%; in [3], 0%; in [4], 0%; in assay [5], 9.3%; in assay [6] it was 82.5%. Moreover, the percent blocking in [7] was 9.3%; in [8] it was 82.5%. Besides, the binding result in assay [9] and in assay [10] was “no binding (tested: 400 ng coated (axis))” each time.

B3: 1035423 (antibody, V domains shown)
VH: EVKLEESGGGLVQPGGSMKLSCTASGFTFSDAWMDWVRQSPEKGLEWVAEIRNKANNHATYYAESVKGRFTISRDDSKSSVYLQMNSLRAEDTGIYYCILFITYAMDYWGQGTSVTVSS
VL: DIVLTQSQKFMSTSVGDRVSITCKASQNVRTAVAWYQQKPGQSPKALIYLASNRHTGVPDRFTGSGSGTDFTLTISNVQSEDLADYFCLQHWNYPLTFGSGTKLELK
Take B3: the percent blocking in assay [1] came out at 0%; in assay [2], 0%; in assay [3], 0%; in [4] it was 0%; in assay [5], 19.7%; in assay [6], 91.6%. Also, in [8], the percent blocking was determined as 91.6%. For the same molecule, the binding result in assay [11] and in assay [12] was “no binding (tested: 400 ng coated (axis))” each time.

B4: 1035414 (antibody, V domains shown)
VH: QVQLKQSGAELVRPGASVKLSCKTSGYIFTSYWIHWVKQRSGQGLEWIARIYPGTGNTYYNEKFKGKATLTADKSSTTAYMQLSSLKSEDSAVYFCARGEDNLYYYAMDYWGQGTSVTVSS
VL: NIVLTQSPASLAVSLGQRATISCRASESVDSYGTSFMHWYQQKPGQPPKLLIYLASNLESGVPASFSGSGSRTDFTLTIDPVEADDAATYYCQQNNEDPWTFGGGTKLEIK
With B4, the percent blocking in assay [1] was 0.4%; in [2], 12%; in [3] it was 0.4%; in assay [4] it was 12%; in assay [5], 25.9%; in assay [6] it was 51.4%. In addition, the results for the percent blocking in [7] and in assay [8] were 25.9% and 51.4%, respectively.

B5: 1035419 (antibody, V domains shown)
VH: B4 VH with V37I, N57S, Y60N, T77S, Y105F
VL: B4 VL with T34A, Y40C, S65R, N96Y
With B5, the percent blocking in [1] was 44.1%; in [2] it was 88.5%; in [3] it was 44.1%; in [4], 88.5%; in assay [5], 70.1%; in assay [6], 89%. Also, the percent blocking in assay [7] worked out at 70.1%; in assay [8], 89%. In addition, the binding result with BSA [13] is reported as “no binding (tested: 10 µg/mL)”. In [14], this molecule returned an IC50 of 2.86 µg/mL.

B6: 1035240 (antibody, V domains shown)
VH: QVQLQQSGAELARPGASVKMSCKASGYTFTTYTMHWVKQRPGQGLEWIGYINPSSGYTNYNQKFKDKATLTADTSSSTAYMQLSSLTSEDSAVYYCARRNPLYAMDYWGQGTSVTVSS
VL: DIKMTQSPSSMYASLGERVTITCKASQDINSYLNWFQQKPGKSPKTLIYRANRLVDGVPSRFSGSGSGQDYSLTISSLEYEDMGIYYCLQYDEFPYTFGGGTKLEIK
For the molecule B6, the percent blocking in assay [1] came out at 0%; in [2], 0%; in [3] it was 0%; in assay [4], 0%; in [5], 56.5%; in [6], 96.1%. In addition, the percent blocking in assay [7] was determined as 56.5%; in assay [8], 96.1%. In addition, the binding result is “no binding (tested: 400 ng coated (axis))” in assay [15], “no binding (tested: 10 µg/mL)” with BSA [16] and “no binding (tested: 10 µg/mL)” in assay [17].

B7: 1035224 (antibody, V domains shown)
VH: EVQLQQSGAEFVRPGALVKLSCKASGFNIKDDYMHWVKQRPEQGLEWIGWIDPENGNSIYDPKFQGKASITADTSSNTAYLQLSSLTSEDTAVYYCARGEYFGSGSFAYWGQGTLVTVSA
VL: QIVLTQSPAIMSASPGEKVTISCSASSSVSYMYWYQQKPGSSPKPWIYRTSNLASGVPARFSGSGSGTSYSLTISSMEAEDAATYYCQQYHSYPYMYTFGGGTKLEIK
For B7, the percent blocking is 0% in assay [1]; 0% in [2]; 0% in assay [3]; 0% in [4]; 86.6% in [5]; 96.6% in [6]. Also, the percent blocking in assay [7] worked out at 86.6%; in assay [8], 96.6%. Moreover, the binding result in assay [18] is “no binding (tested: 10 µg/mL)”; in assay [19] it was “no binding (tested: 400 ng coated (axis))”.

The record behind these values is patent US20230408517A1 (BIO TECHNE, published 2023).
